Data: US20160177324A1, “NOVEL PROTEIN AND GENE RELATED TO FLAVONOID O-METHYLTRANSFERASE (FOMT) AND THEIR USES THEREFORE” (INSTITUTE OF BOTANY, THE CHINESE ACADEMY OF SCIENCES, priority 2013, published 2016)

Key:
[1] = Comparison of activities among recombinant polypeptides with site mutagenesis; format: biochemical; details: Cy3G5G as substrate
Procedure: The reaction system was according to Hugueney et al. with some modification (Hugueney, P., et al., A novel cation-dependent O-methyltransferase involved in anthocyanin methylation in grapevine. Plant Physiology, 2009. 150(4): p. 2057-2070.). Purified recombinant FOMT (2 μg) was assayed in a final volume of 200 μL containing 200 μM SAM, 1 mM MgCl2, 14 mM β-mercaptoethanol, 100 mM Tris, pH 7.5, and 20 μM flavonoid substrates. Incubation was performed at 35° C. and stopped with 200 μL methanol containing 2% formic acid. For enzyme kinetic studies, purified FOMT was incubated based on the above condition with the exception that a range of substrate concentrations from 5 to 200 μM were used for Km determination. Reaction product was analyzed by a Dionex HPLC system (Sunnyvale, Calif.), equipped with a P680 HPLC pump, an UltiMate 3000 autosampler, a TCC-100 thermostated column compartment and a Dionex PDA100 photodiode array detector. The analytical column was C18 column of ODS 80Ts QA (150 mm×4.6 mm, 5 μm i.d., Tosoh, Tokyo) protected with a C18 guard cartridge (Shanghai ANPEL Scientific Instrument, Shanghai). The following solvent and gradient were used: A, 10% aqueous formic acid; B, methanol; constant gradient from 10 to 36% B within 15 min and back to 10% B in 3 min; the flow rate was 0.8 mL min^−1; Column temperature was maintained at 35° C.; 20 μL of analyte was injected. Chromatograms were obtained at 525 nm for anthocyanins and 350 nm for other flavonoids, and photodiode array spectra were recorded from 200 to 800 nm. Km and Vmax values were calculated from Lineweaver-Burk plots.
To validate the key amino acid responsible for the activity, site-directed mutagenesis was carried out using the PCR method and Fast Mutagenesis System (TransGen), and primer sequences used are given in Table 1. Four constructs were built following the template sequence of PtFOMT, named as PtFOMT-G13E, PtFOMT-T85A, PtFOMT-R87L, and PtFOMT-T205R. The corresponding recombinant proteins were purified and the catalytic activities were examined. […] The other mutants have no significant improved activity compared with PtFOMT. The leucine at 87-position is a vital residue for the methyltransferase activity.

[2] = test system: Fragaria×ananassa cv. 'Hongyan' fruits; assay: Transient expression in strawberry fruit (coexpression with PAP1); format: in vivo
Procedure: A strawberry cultivar, Fragaria×ananassa cv. ‘Hongyan’ (The Beijing Agricultural Technology Extension Station) with fruits turning red were chosen as subjects. A single colony of Agrobacterium strain EHA105 with pBI121-FOMT construct was inoculated, and the pellet were centrifuged and washed with infiltration buffer (50 mM Mes, pH 5.6, 2 mM Na3PO4, 0.5% glucose (w/v), and 100 mM acetosyringone) according to Hoffmann et al. (Hoffmann, T., G. Kalinowski, and W. Schwab, RNAi-induced silencing of gene expression in strawberry fruit (Fragaria×ananassa) by agroinfiltration: a rapid assay for gene function analysis. Plant Journal, 2006. 48(5): p. 818-826.). The bacterial suspension was diluted with infiltration buffer to adjust the inoculum concentration to OD600 0.1-0.3. A syringe infiltration method was used to transient transform strawberry fruits. The infiltrated fruits were harvested after four days for anthocyanin content analyses as follow. […] The MS conditions were listed as follow: negative-ion (NI) mode; capillary voltage of 3.5 kV; a nebulization pressure of 241.3 kPa; and a gas (N2) temperature of 350° C. with flow rate of 6.0 L min^−1 Capillary offset voltage was 77.2 V. MS spectra were recorded over the range from m/z 50-1000.

B1: PsFOMT: flavonoid O-methyltransferase from tree peony Paeonia suffruticosa cv. 'Gunpohden', SEQ ID NO: 3; recombinant MBP fusion protein (protein, listed as Paeonia suffruticosa)
chain: MAESDRKGILKSEALLKYILETSVYPREHEQLKQLRQATVDKYKYWSVMNVPADEGQFLSMLLKIMNAKKTIEVGVFTGYSLLTAALALPTDAKITAIDPDGEAYETGLPFIKKAGVEHKINYIQADAMSVLDDLVTNGKEEGSFDFAFVDADKENYAKYHEPLMKLVKIGGIIGYDNTLWFGSVALSDGDEMKEFQEKGRRIFREFNTFLAADPRIELAHISIGDGLALCRRLY
modifications: MBP fusion
notes: recombinant MBP fusion protein
[1]; Incubation 5 min
  Activity (%), portion of recombinant protein activity compared with PsFOMT: 100%
[1]; Incubation 30 min
  Activity (%), portion of recombinant protein activity compared with PsFOMT: 100%
[2]
  proportion of methylated products (Pn type) to precursors (Cy type): more than that of PtFOMT
